± gives the uncertainty stated by the source.
Experiment: self-splicing fitness, log relative to wild type (ln ratio); higher = more splicing; Tetrahymena group I intron in knt gene, E. coli kanamycin selection, DiMSum; sequences stand for … in CUCUCU…GGAGGGAAAAGUUAUCAGGCAUGCACCUGGUAGCUAGUCUUUAAACCAAUAGAUUGCAUCGGUUUAAAAGGCAAGACCGUCAAAUUGCGGGAAAGGGGUCAACAGCCGUUCAGUACCAAGUCUCAGGGGAAACUUUGAGAUGGCCUUGCAAAGGGUAUGGUAAUAAGCUGACGGACAUGGUCCUAACCACGCAGCCAAGUCCUAAGUCAACAGAUCUUCUGUUGAUAUGGAUGCAGUUCACAGACUAAAUGUCGGUCGGGGAAGAUGUAUUCUUCUCAUAAGAUAUAGUCGGACCUCUCCUUAAUGGGAGCUAGCGGAUGAAGUGAUGCAACACUGGAGCCGCUGGGAACUAAUUUGUAUGCGAAAGUAUAUUGAUUAGUUUUGGAGUACUCGUGGUCG
Outline: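 Pooled colonies went to amplicon sequencing on an Illumina HiSeq 2500 after six replicate transformations. The plates were LB agar with 100 μg/mL carbenicillin, 50 μM IPTG and 0.2% rhamnose, with or without 25 μg/mL kanamycin, incubated overnight at 37°C or 30°C. The E. coli BL21(DE3) library had all eight P1ex-region intron nucleotides randomised, the intron placed in the knt kanamycin-resistance gene on pET-22b(+). DiMSum fitness is the error-weighted combination of replicate fold changes, kanamycin against none, normalised to wild type.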

Row | Sequence | self-splicing fitness (ln) (30 °C) | self-splicing fitness (ln) (37 °C)
1 | UCAUAGCAAUAUUACGGAAU | -3.32 ± 0.33 | -3.09 ± 0.47
2 | ACACAGCAAUAUUACGACUG | -0.972 ± 0.047 | -0.67 ± 0.06
3 | GGGCAGCAAUAUUACGGUUU | -0.465 ± 0.065 | -0.681 ± 0.071
4 | UCCUAGCAAUAUUACGCUGA | -1.02 ± 0.11 | -0.876 ± 0.12
5 | UCCCAGCAAUAUUACGCAGU | -1.21 ± 0.075 | -0.7 ± 0.1
6 | CCAAAGCAAUAUUACGCCUG | -0.536 ± 0.055 | -0.707 ± 0.07
7 | UAGCAGCAAUAUUACGUCUA | -0.114 ± 0.073 | 0.146 ± 0.084
8 | AAUGAGCAAUAUUACGGUCG | -2.26 ± 0.14 | -1.62 ± 0.2
9 | ACCCAGCAAUAUUACGUUAU | -1.91 ± 0.064 | -1.04 ± 0.081
10 | UCUCAGCAAUAUUACGCCUG |  | -2.27 ± 0.47
11 | UUAAAGCAAUAUUACGGCCU | -0.459 ± 0.12 | 0.567 ± 0.16
12 | ACUGAGCAAUAUUACGGUCA | -3.09 ± 0.21 | -1.51 ± 0.15
13 | GAUCAGCAAUAUUACGACCG | -1.01 ± 0.11 | -0.323 ± 0.14
14 | UCCAAGCAAUAUUACGUCAA | -2.68 ± 0.19 | -0.871 ± 0.1
15 | GAUAAGCAAUAUUACGAACC | -0.954 ± 0.1 | -0.647 ± 0.13
16 | UACAAGCAAUAUUACGGUAG | -2.15 ± 0.089 | -1.43 ± 0.086
17 | AGUGAGCAAUAUUACGGGUG | -3.71 ± 0.17 | -2.79 ± 0.21
18 | CGCUAGCAAUAUUACGCGGC | -3.25 ± 0.35 | -3.1 ± 0.29
19 | UUGUAGCAAUAUUACGGAAG | -3.94 ± 0.33 | -1.7 ± 0.36
20 | AUAAAGCAAUAUUACGUUUA | -0.935 ± 0.065 | -0.201 ± 0.08
21 | CUUCAGCAAUAUUACGACAC |  | -1.11 ± 0.24
22 | GGUAAGCAAUAUUACGGUCA | -0.727 ± 0.1 | 0.416 ± 0.11
23 | AGUCAGCAAUAUUACGUUUC | -3.63 ± 0.15 | -1.34 ± 0.11
24 | AAAGAGCAAUAUUACGGCCA | -3.01 ± 0.31 | -2.5 ± 0.29
25 | CAUGAGCAAUAUUACGGUCA | -2.96 ± 0.2 | -2.57 ± 0.22

Row | Sequence | self-splicing fitness (ln) (30 °C) | self-splicing fitness (ln) (37 °C)
26 | UUGGAGCAAUAUUACGUUAU | -2.79 ± 0.28 | -0.885 ± 0.26
27 | GUAGAGCAAUAUUACGUGGU | -3.09 ± 0.28 | -3.52 ± 0.3
28 | UUUGAGCAAUAUUACGCUGC | -3.12 ± 0.47 | 
29 | UGGGAGCAAUAUUACGUUGU | -3.01 ± 0.23 | -2.2 ± 0.34
30 | AGAAAGCAAUAUUACGCCGU | -0.929 ± 0.11 | -0.341 ± 0.13
31 | UCCGAGCAAUAUUACGAAGG | -2.07 ± 0.11 | -1.43 ± 0.13
32 | GUGCAGCAAUAUUACGACAU | -0.587 ± 0.013 | -0.143 ± 0.032
33 | CUAGAGCAAUAUUACGGGAA | -4.25 ± 0.35 | -2.45 ± 0.45
34 | UAUGAGCAAUAUUACGUGGA | -3.52 ± 0.35 | -3.47 ± 0.43
35 | GUAAAGCAAUAUUACGGCGA | -0.00421 ± 0.11 | -0.231 ± 0.17
36 | CGAUAGCAAUAUUACGGGUC | -4.07 ± 0.46 | -2.46 ± 0.3
37 | AAUGAGCAAUAUUACGCUUC |  | -1.71 ± 0.23
38 | GGAGAGCAAUAUUACGCGAG | -2.31 ± 0.48 | 
39 | UUAUAGCAAUAUUACGACUG | -1.05 ± 0.14 | -0.662 ± 0.15
40 | AAGCAGCAAUAUUACGCCCA | -0.461 ± 0.15 | 0.244 ± 0.23
41 | ACCCAGCAAUAUUACGACGU | -0.291 ± 0.055 | 0.39 ± 0.071
42 | GAACAGCAAUAUUACGUAUG | -1.02 ± 0.091 | -0.888 ± 0.12
43 | CCUAAGCAAUAUUACGCUUC | -3.16 ± 0.28 | 
44 | CAUUAGCAAUAUUACGCUGA | -3.13 ± 0.24 | -1.96 ± 0.26
45 | AUCUAGCAAUAUUACGGGUC | -5.59 ± 0.41 | -2.49 ± 0.23
46 | UCUGAGCAAUAUUACGUCUA | -1.67 ± 0.18 | -2.17 ± 0.26
47 | CCUGAGCAAUAUUACGUGUU | -4.7 ± 0.34 | -2.52 ± 0.17
48 | CGACAGCAAUAUUACGCAAC | -4.32 ± 0.31 | -2.61 ± 0.27
49 | CAGUAGCAAUAUUACGCCGG | -0.444 ± 0.21 | -0.309 ± 0.28
50 | UUAAAGCAAUAUUACGAAGU | -3.67 ± 0.44 | -2.47 ± 0.39

Row | Sequence | self-splicing fitness (ln) (30 °C) | self-splicing fitness (ln) (37 °C)
51 | UUCCAGCAAUAUUACGGGUC | -2.91 ± 0.17 | -2.12 ± 0.25
52 | UAACAGCAAUAUUACGGCAC | -2.47 ± 0.13 | -1.63 ± 0.14
53 | ACUUAGCAAUAUUACGUCUC | -2.31 ± 0.25 | -3.34 ± 0.32
54 | UACGAGCAAUAUUACGCCUC |  | -2.06 ± 0.34
55 | GGGGAGCAAUAUUACGGCCA | -0.941 ± 0.2 | 0.555 ± 0.21
56 | UCCAAGCAAUAUUACGCUAU | -3.98 ± 0.47 | -2.26 ± 0.23
57 | AUAUAGCAAUAUUACGGAAU | -1.92 ± 0.21 | 0.227 ± 0.23
58 | UGUGAGCAAUAUUACGAAUC | -2.91 ± 0.38 | 
59 | CUCAAGCAAUAUUACGAACC | -2.43 ± 0.39 | -2.38 ± 0.28
60 | UUCUAGCAAUAUUACGCAUC | -2.33 ± 0.42 | -0.769 ± 0.29
61 | AAGUAGCAAUAUUACGUGCC | -0.879 ± 0.087 | -0.766 ± 0.1
62 | GCUUAGCAAUAUUACGUAAU | -0.0411 ± 0.068 | 0.545 ± 0.083
63 | CUCGAGCAAUAUUACGCCGU |  | -1.79 ± 0.26
64 | CGGGAGCAAUAUUACGCCCA | -2.28 ± 0.25 | -1.24 ± 0.28
65 | UAUUAGCAAUAUUACGCCCU | -1.3 ± 0.21 | 0.526 ± 0.2
66 | GGGAAGCAAUAUUACGUGAC | -1.99 ± 0.18 | 0.336 ± 0.21
67 | AACAAGCAAUAUUACGAACC | -1.27 ± 0.12 | 0.0146 ± 0.19
68 | CUUGAGCAAUAUUACGCGCA | -2.81 ± 0.27 | -2.23 ± 0.33
69 | GAGCAGCAAUAUUACGAACA | -1.47 ± 0.12 | -1.07 ± 0.15
70 | UCGUAGCAAUAUUACGGGGA | -2.6 ± 0.28 | -1.23 ± 0.23
71 | AUGGAGCAAUAUUACGGAUU | -2.09 ± 0.13 | 0.177 ± 0.13
72 | UAUUAGCAAUAUUACGGGUU | -2.08 ± 0.13 | -1.77 ± 0.2
73 | GCAUAGCAAUAUUACGCCAA | -4.09 ± 0.4 | -2.76 ± 0.35
74 | UCAAAGCAAUAUUACGCUCG | -0.615 ± 0.081 | -0.0673 ± 0.12
75 | CAACAGCAAUAUUACGUACU | -1.89 ± 0.076 | -0.917 ± 0.097

Row | Sequence | self-splicing fitness (ln) (30 °C) | self-splicing fitness (ln) (37 °C)
76 | AUUUAGCAAUAUUACGCAUG | -1.05 ± 0.12 | -0.777 ± 0.18
77 | AUAUAGCAAUAUUACGAUGU | 0.361 ± 0.18 | -0.83 ± 0.23
78 | CGAUAGCAAUAUUACGGCGA | -1.5 ± 0.25 | -1.11 ± 0.16
79 | ACUAAGCAAUAUUACGUGGC | -3.03 ± 0.14 | -2.57 ± 0.17
80 | GUUAAGCAAUAUUACGUCAG |  | -2.22 ± 0.4
81 | GUGAAGCAAUAUUACGUUGA | -1.56 ± 0.078 | -0.398 ± 0.093
82 | AGUAAGCAAUAUUACGUUAU | -3.25 ± 0.23 | -2.18 ± 0.18
83 | GUACAGCAAUAUUACGGCUA | 0.707 ± 0.15 | 0.282 ± 0.12
84 | GGCUAGCAAUAUUACGGCAC | 0.203 ± 0.13 | -0.036 ± 0.14
85 | GCAUAGCAAUAUUACGCGCU |  | -2.39 ± 0.31
86 | UCUGAGCAAUAUUACGUCGC | -4.03 ± 0.37 | -2.54 ± 0.36
87 | CUGAAGCAAUAUUACGAUCA | -1.68 ± 0.13 | -1.53 ± 0.13
88 | GAAAAGCAAUAUUACGAGCG | -0.699 ± 0.14 | -0.579 ± 0.15
89 | CGUUAGCAAUAUUACGCCUC | -3.03 ± 0.49 | -2.48 ± 0.32
90 | UGACAGCAAUAUUACGUGUG | -0.953 ± 0.06 | -0.807 ± 0.069
91 | CUUGAGCAAUAUUACGUAUC | -3.35 ± 0.19 | -3.22 ± 0.33
92 | UACGAGCAAUAUUACGCAUA | -3.17 ± 0.19 | -0.975 ± 0.13
93 | UGCAAGCAAUAUUACGAGGA | -3.28 ± 0.26 | -0.992 ± 0.14
94 | UUCUAGCAAUAUUACGUCUU | -3.03 ± 0.29 | -2.26 ± 0.23
95 | UAAUAGCAAUAUUACGCUUU | -3.54 ± 0.44 | -1.5 ± 0.2
96 | CUAAAGCAAUAUUACGAUAA | -2.17 ± 0.14 | -0.422 ± 0.12
97 | GCACAGCAAUAUUACGGUCA | -0.62 ± 0.08 | -0.276 ± 0.074
98 | AAAUAGCAAUAUUACGCUAA | -2.19 ± 0.21 | -1.52 ± 0.2

From the supplement of paper PMC7877785
